B1: Chemotaxis protein CheY, P0AE67 (parent)
chain: MADKELKFLVVDDFSTMRRIVRNLLKELGFNNVEEAEDGVDALNKLQAGGYGFVISDWNMPNMDGLELLKTIRADGAMSALPVLMVTAEAKKENIIAAAQAGASGYVVKPFTAATLEEKLNKIFEKLGM

Variants of: B1
Conditions: Escherichia coli (strain K12); pH 8; 25 °C; Urea; CD; Na-PIPES 50 mM; reversible: yes; structure 1CEY; whole UniProt chain shown

Variant: T112G F14N
- ddG of mutation (higher = less stable): -1.9 kcal/mol
- denaturant m value: 1.68 kcal/mol/M
- denaturant midpoint (higher = more stable): 4.46 M
- unfolding free energy: 7.5 kcal/mol

Variant: A36G F14N
- ddG of mutation (higher = less stable): 0.2 kcal/mol
- denaturant m value: 1.6 kcal/mol/M
- denaturant midpoint (higher = more stable): 3.41 M
- unfolding free energy: 5.4 kcal/mol

Variant: T112A F14N
- ddG of mutation (higher = less stable): -1.4 kcal/mol
- denaturant m value: 1.68 kcal/mol/M
- denaturant midpoint (higher = more stable): 4.12 M
- unfolding free energy: 7 kcal/mol

Variant: A74G
- ddG of mutation (higher = less stable): 0.3 kcal/mol
- denaturant m value: 1.6 kcal/mol/M
- denaturant midpoint (higher = more stable): 3.32 M
- unfolding free energy: 5.3 kcal/mol

Variant: A97G F14N
- ddG of mutation (higher = less stable): -1.5 kcal/mol
- denaturant m value: 1.77 kcal/mol/M
- denaturant midpoint (higher = more stable): 4 M
- unfolding free energy: 7.1 kcal/mol

Variant: D38G F14N
- ddG of mutation (higher = less stable): -1.9 kcal/mol
- denaturant m value: 1.81 kcal/mol/M
- denaturant midpoint (higher = more stable): 4.14 M
- unfolding free energy: 7.5 kcal/mol

Variant: G76A F14N
- ddG of mutation (higher = less stable): -3.4 kcal/mol
- denaturant m value: 1.77 kcal/mol/M
- denaturant midpoint (higher = more stable): 5.08 M
- unfolding free energy: 9 kcal/mol

Variant: A98G F14N
- ddG of mutation (higher = less stable): -1.6 kcal/mol
- denaturant m value: 1.76 kcal/mol/M
- denaturant midpoint (higher = more stable): 4.09 M
- unfolding free energy: 7.2 kcal/mol

Variant: A99G
- ddG of mutation (higher = less stable): 0.5 kcal/mol
- denaturant m value: 1.58 kcal/mol/M
- denaturant midpoint (higher = more stable): 3.23 M
- unfolding free energy: 5.1 kcal/mol

Variant: A42G F14N
- ddG of mutation (higher = less stable): -0.6 kcal/mol
- denaturant m value: 1.73 kcal/mol/M
- denaturant midpoint (higher = more stable): 3.58 M
- unfolding free energy: 6.2 kcal/mol

Variant: A77G
- ddG of mutation (higher = less stable): 0.3 kcal/mol
- denaturant m value: 1.56 kcal/mol/M
- denaturant midpoint (higher = more stable): 3.32 M
- unfolding free energy: 5.3 kcal/mol

Variant: A103G F14N
- ddG of mutation (higher = less stable): -1.2 kcal/mol
- denaturant m value: 1.75 kcal/mol/M
- denaturant midpoint (higher = more stable): 3.89 M
- unfolding free energy: 6.8 kcal/mol

Variant: A88G
- ddG of mutation (higher = less stable): -0.1 kcal/mol
- denaturant m value: 1.64 kcal/mol/M
- denaturant midpoint (higher = more stable): 3.48 M
- unfolding free energy: 5.7 kcal/mol

Variant: D64G F14N
- ddG of mutation (higher = less stable): -2.6 kcal/mol
- denaturant m value: 1.72 kcal/mol/M
- denaturant midpoint (higher = more stable): 4.77 M
- unfolding free energy: 8.2 kcal/mol

Variant: D64A F14N
- ddG of mutation (higher = less stable): -1.7 kcal/mol
- denaturant m value: 1.69 kcal/mol/M
- denaturant midpoint (higher = more stable): 4.32 M
- unfolding free energy: 7.3 kcal/mol

Variant: D38A F14N
- ddG of mutation (higher = less stable): -1 kcal/mol
- denaturant m value: 1.87 kcal/mol/M
- denaturant midpoint (higher = more stable): 3.58 M
- unfolding free energy: 6.6 kcal/mol

Variant: F14N
- ddG of mutation (higher = less stable): -2.9 kcal/mol
- denaturant m value: 1.8 kcal/mol/M
- denaturant midpoint (higher = more stable): 4.72 M
- unfolding free energy: 8.5 kcal/mol

Variant: K91A F14N
- ddG of mutation (higher = less stable): -3.3 kcal/mol
- denaturant m value: 1.86 kcal/mol/M
- denaturant midpoint (higher = more stable): 4.8 M
- unfolding free energy: 8.9 kcal/mol

Variant: A114G
- ddG of mutation (higher = less stable): 0.5 kcal/mol
- denaturant m value: 1.6 kcal/mol/M
- denaturant midpoint (higher = more stable): 3.2 M
- unfolding free energy: 5.1 kcal/mol

Variant: A80G
- ddG of mutation (higher = less stable): -0.6 kcal/mol
- denaturant m value: 1.68 kcal/mol/M
- denaturant midpoint (higher = more stable): 3.65 M
- unfolding free energy: 6.2 kcal/mol

From FireProtDB (doi:10.1002/prot.340220405)
